# Data from article PMC9041927, “Aptamer based surface plasma resonance assay for direct detection of neuron specific enolase and progastrin-releasing peptide (31-98)†”.
# T1: progastrin-releasing peptide (31-98) (ProGRP31-98) (UniProt P07492 54-121)
# T1 sequence: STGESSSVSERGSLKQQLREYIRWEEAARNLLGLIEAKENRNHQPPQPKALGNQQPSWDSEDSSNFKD
# Columns and labels:
# [1] = biological target: T2, neuron specific enolase (NSE) (UniProt P09104 2-434); assay: SPR; 5 mM MgCl2; kon 1.21e4 (printed Ms-1), koff 1.004e-3 s-1; SPR (Biacore X100, SA chip); 1x PBS pH 7.5, 0.1% Tween 20, 5 mM MgCl2 (NSE) or 2 mM MgCl2 (ProGRP31-98); temperature not stated; conditions: protein: recombinant; chain copies: 2; label: 5' biotin-TEG
# T2 sequence (P09104 2-434): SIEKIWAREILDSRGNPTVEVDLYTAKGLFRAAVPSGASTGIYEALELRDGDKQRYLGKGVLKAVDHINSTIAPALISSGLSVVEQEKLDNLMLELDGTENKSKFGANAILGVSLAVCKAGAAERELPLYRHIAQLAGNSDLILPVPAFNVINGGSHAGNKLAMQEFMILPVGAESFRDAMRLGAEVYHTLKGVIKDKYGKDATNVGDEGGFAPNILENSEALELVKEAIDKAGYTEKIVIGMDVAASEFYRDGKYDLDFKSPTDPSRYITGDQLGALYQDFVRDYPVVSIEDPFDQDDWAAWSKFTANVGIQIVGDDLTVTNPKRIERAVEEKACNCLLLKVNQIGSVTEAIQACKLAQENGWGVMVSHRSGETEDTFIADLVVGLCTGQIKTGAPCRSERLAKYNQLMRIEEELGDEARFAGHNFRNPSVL
# [2] = biological target: T1, progastrin-releasing peptide (31-98) …; assay: SPR; 2 mM MgCl2; kon 8.64e3 (printed Ms-1), koff 1.321e-3 s-1; SPR (Biacore X100, SA chip); 1x PBS pH 7.5, 0.1% Tween 20, 5 mM MgCl2 (NSE) or 2 mM MgCl2 (ProGRP31-98); temperature not stated; conditions: protein: commercial; label: 5' biotin-TEG
# [3] = biological target: T2, neuron specific enolase (NSE); assay: SPR; NSE 125 nM to 2 uM; SPR (Biacore X100, SA chip); 1x PBS pH 7.5, 0.1% Tween 20, 5 mM MgCl2 (NSE) or 2 mM MgCl2 (ProGRP31-98); temperature not stated; conditions: protein: recombinant; chain copies: 2; label: 5' biotin-TEG
binder,measurement,setting,value
TCACACACGGACCTCTCCTACATTAATTGCGCATTTCGTT (ssDNA) [NSE-Apt5-5BioTEG],Kd,[1],~83 nM
CATGCGGAGTAGATTCGAGCCCAGATAGTCCCTGGTTATTTCCTTAGG (ssDNA) [ProGRP-48-5BioTEG],Kd,[2],153 nM
TCAGGTGCAGTTCTCGACTCGGTCTTGATGTGGGT (ssDNA) [DNA control],binding result,[3],no binding
